Measured values: patent US20250340631A1 (HARBOUR BIOMED SHANGHAI, published 2025)

How the values were obtained:
human CLDN18.2 [1] = target: T1, human CLDN18.2 (human); assay: competition FACS on HEK293/hCLDN18.2 cells; competitor 10 nM biotinylated PR000400
T1 construct: the HEK293 line was made with a GenScript plasmid; also called hCLDN18.2
Procedure: (§1) This example is to study the binding of anti-human CLDN18.2 HCAb monoclonal antibodies to the epitope region of human CLDN18.2 antigen. Competitive binding experiments were performed at the cellular level using HEK293/hCLDN18.2 cells overexpressing human CLDN18.2. […] Then suspension of HEK293/hCLDN18.2 cells overexpressing human CLDN18.2 were adjusted to 3×10⁶ cells/mL, seeded 50 L/well. The cells were co-incubated at 4° C. for 2 h. The cells in each well were washed twice with 200 μL of pre-cooled FACS buffer (2% FBS in PBS) and centrifuged at 500 g at 4° C. for 5 min, and then the supernatant was discarded. […] The cells in each well were washed twice with 200 μL of pre-cooled FACS buffer (2% FBS in PBS) and centrifuged at 500 g at 4° C. for 5 min, and then the supernatant was discarded. Finally, the cells in each well were resuspended in 200 μL of pre-cooled FACS buffer, and the fluorescence signal values were read using a BD FACS CANTOII.

human CLDN18.2 [2] = target: T1, human CLDN18.2; assay: FACS on SNU601 cells
Procedure: (§2) The binding affinity of an antibody was detected by FACS using human CLDN18.1-expressing HEK293 cells, human CLDN18.2-expressing HEK293 cells, NUGC4_D8 cells and SNU601 cells endogenously expressing human CLDN18.2 (Cobioer, CBP60507). […] The cell density was adjusted to 10⁶ cells/mL, and 50 μL of the cell suspension was added to each well of a 96-well plate. Antibodies were diluted to different concentrations with FACS buffer, and 50 μL of the antibody dilution was added to each well of the 96-well plate. After 2 h of incubation at 4° C., the plate was washed twice with FACS buffer. […] After 1 h of incubation at 4° C., the plate was washed twice with FACS buffer. The cells were resuspended in fixative solution, and then the fluorescence of the cells was monitored using an FACS instrument (ACEA NovoCyte).

human CLDN18.2 [3] = target: T1, human CLDN18.2; assay: competition FACS on HEK293/hCLDN18.2 cells; competitor 200 nM biotinylated PR004549
Procedure: as §1

human CLDN18.2 [4] = target: T1, human CLDN18.2; assay: FACS on NUGC4_D8 cells
Procedure: as §2

human CLDN18.2 [5] = target: T1, human CLDN18.2; assay: FACS on HEK293/hCLDN18.2 cells
Procedure: as §2

[6] = target: T2, Biotinylated human CD3E&D (human, UniProt P07766 23-126; P04234 22-105, biotin label); assay: BLI (Octet), biotinylated CD3 on SA sensor, 1:1 global fit;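 further: antibodies applied as analyte in 2-fold serial dilutions, with a 180 s association phase followed by a 300 s dissociation phase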
T2 construct: also called CDD-H82W6
T2 sequence (P07766 23-126, chain 1 of 2): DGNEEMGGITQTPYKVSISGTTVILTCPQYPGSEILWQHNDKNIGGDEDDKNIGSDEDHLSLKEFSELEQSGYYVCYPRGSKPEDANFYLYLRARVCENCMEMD
T2 sequence (P04234 22-105, chain 2 of 2): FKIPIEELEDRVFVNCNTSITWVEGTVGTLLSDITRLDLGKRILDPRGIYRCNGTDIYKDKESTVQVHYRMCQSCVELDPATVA
Procedure: The binding kinetics between proteins and antibodies was analyzed by the Biolayer Interferometry (BLI) technique using an Octet Red 96e (Fortebio) system. Human CD3E (Acro, CDE-H5223), cynomolgus CD3E (Acro, CDE-C5226) and murine CD3E (Acro, CDE-M5256) were mixed with biotin (Thermo Scientific, A39257) in a molar ratio of 1:3. The mixture was incubated at 4° C. overnight, and then excess biotin was removed to obtain biotinylated CD3E. The rotation speed was set at 1000 rpm for the system. […] After being equilibrated in the buffer for 120 s, the SA sensor with captured CD3 was allowed to bind to 2-fold serially diluted antibodies. […] Finally, the SA sensor was immersed in a 10 mM glycine-hydrochloric acid solution at pH 1.5 for regeneration to elute the antibodies bound to the sensor. […] For the interactions of fast binding and fast dissociation, the “steady state” method was selected to fit the data to obtain KD(M) values.

human CLDN18.2 [7] = target: T1, human CLDN18.2; assay: FACS on NUGC4_D8 cells; remark: listed apart in the source
Procedure: as §2

human CLDN18.2 [8] = target: T1, human CLDN18.2; assay: competition FACS on HEK293/hCLDN18.2 cells; competitor 200 nM biotinylated PR004549; remark: listed apart in the source
Procedure: This example is to study the binding of anti-human CLDN18.2 bispecific antibodies to the epitope region of a human CLDN18.2 antigen. Competitive binding experiments were performed at the cellular level using human CLDN18.2-overexpressing HEK293/hCLDN18.2 cells. […] The mixture was well mixed and incubated at 4° C. for 30 min. 25 μL of the corresponding serially diluted non-biotinylated anti-human CLDN18.2 antibody was added. The mixture was well mixed and incubated at 4° C. for 1 h. The cells in each well were washed twice with 200 μL of pre-cooled FACS buffer (2% BSA in DPBS) and centrifuged at 500 g at 4° C. for 5 min, and then the supernatant was discarded. A fluorescent secondary antibody (Jackson ImmunoResearch, 016-540-084, 1:500) was added. The mixture was incubated at 4° C. in the absence of light for 1 h. The cells in each well were washed twice with 200 μL of pre-cooled FACS buffer (2% BSA in DPBS) and centrifuged at 500 g at 4° C. for 5 min, and then the supernatant was discarded. Finally, the cells in each well were resuspended in 200 μL of pre-cooled FACS buffer, and the fluorescence signal values were read using a ACEA_NovoCyte.

human CLDN18.2 [9] = target: T1, human CLDN18.2; assay: competition FACS on HEK293/hCLDN18.2 cells; competitor 10 nM biotinylated PR000400; remark: listed apart in the source

| Binder | IC50 (human CLDN18.2 [1]) | Maximum inhibition rate (%) (human CLDN18.2 [1]) | IC50 (human CLDN18.2 [3]) | Maximum inhibition rate (%) (human CLDN18.2 [3]) | EC50 (human CLDN18.2 [5]) | Emax (MFI) (human CLDN18.2 [5]) | EC50 (human CLDN18.2 [7]) | Emax (MFI) (human CLDN18.2 [7]) | further results |
| --- | --- | --- | --- | --- | --- | --- | --- | --- | --- |
| PR004227 (antibody, V domains shown, anti-CLDN18.2 HCAb: VH fused to human IgG1 Fc, no light chain; also called R1029P(CG20)001B02) VH: EVQLVESGGGLVQPGGSLRLSCAASGFTFSSYWMHWVRQAPGKGLEWVSYINNDGSSTRYADSVKGRFTISRDNAKNTLYLQMNSLRAEDTAVYYCTEAPPYGNYERDYWGQGTLVTVSS | 22.3 nM | 98.3% | 20.3 nM | 93.8% |  |  |  |  | EC50 (human CLDN18.2 [2]): 28.5 nM; Emax (MFI) (human CLDN18.2 [2]): 14800 MFI |
| PR004953 (antibody, V domains shown, anti-CLDN18.2 HCAb: VH fused to human IgG1 Fc, no light chain; also called R1029P024B07) VH: EVQLVESGGGVVQPGRSLRLSCAASGFTFSSYGMHWVRQAPGKGLEWVAVIGYDGRNKYYADSVKGRFTISRDNSKNTLFLQMDNLRAEDTALYYCARHFPSLPGTTDTFDIRGPGTMVTVSS | 16.7 nM | 98% | 13.8 nM | 93.2% |  |  |  |  | EC50 (human CLDN18.2 [4]): 12 nM; Emax (MFI) (human CLDN18.2 [4]): 219000 MFI |
| PR004536 (antibody, V domains shown, anti-CLDN18.2 HCAb: VH fused to human IgG1 Fc, no light chain; also called R1029P028A11) VH: EVQLVESGGGLVQPGGSLRLSCAASGFTFSSYWMYWVRQVPGKGLVWVSHINSDGSTTQYADSVKGRFTISRDNAKNMLYLQMNSLRAEDTAVYYCARDFPVLGGSHFDFQHWGQGTLVTVSS | 103 nM | 98% | 74.1 nM | 90.1% |  |  |  |  | EC50 (human CLDN18.2 [2]): 52.7 nM; Emax (MFI) (human CLDN18.2 [2]): 15800 MFI |
| PR007247 (antibody, human IgG1, V domains shown, HCDR2 PTM-removal mutant of PR004536; HCAb, human IgG1 Fc; also called 4536_M8A6) VH: EVQLVESGGGLVQPGGSLRLSCAASGFTFSSYWMYWVRQVPGKGLVWVSHINPLGSTTQYADSVKGRFTISRDNAKNMLYLQMNSLRAEDTAVYYCARDFPVLGGSHFDFQHWGQGTLVTVSS |  |  |  |  | 35.3 nM | 1.27e+06 MFI |  |  |  |
| PR002199 (bispecific antibody) chain 1: not shown chain 2: EVQLVESGGGLVQPGRSLRLSCAASGFTFDDYAMHWVRQAPGKGLEWVSGISWNSGSIGYADSVKGRFTISRDNAKNSLYLQMNSLRAEDTALYYCAKDSRGYGDYRLGGAYWGQGTLVTVSSASTKGPSVFPLAPSSKSTSGGTAALGCLVKDYFPEPVTVSWNSGALTSGVHTFPAVLQSSGLYSLSSVVTVPSSSLGTQTYICNVNHKPSNTKVDKKVEPKSCDKTHTCPPCPAPEAAGGPSVFLFPPKPKDTLMISRTPEVTCVVVDVSHEDPEVKFNWYVDGVEVHNAKTKPREEQYNSTYRVVSVLTVLHQDWLNGKEYKCKVSNKALGAPIEKTISKAKGQPREPQVYTLPPCREEMTKNQVSLWCLVKGFYPSDIAVEWESNGQPENNYKTTPPVLDSDGSFFLYSKLTVDKSRWQQGNVFSCSVMHEALHNHYTQKSLSLSPGK chain 3: EVQLLESGGGLVQPGGSLRLSCAASGFTVSSYGMSWVRQAPGKGPEWVSGIRGSDGSTYYADSVKGRFTISRDNSKNTLYLQMNSLRAEDTAVYYCAKQGENDGPFDHRGQGTLVTVSSGGGGSEVQLLESGGGLVQPGGSLRLSCAASGFTVSSYGMSWVRQAPGKGPEWVSGIRGSDGSTYYADSVKGRFTISRDNSKNTLYLQMNSLRAEDTAVYYCAKQGENDGPFDHRGQGTLVTVSSASEPKSSDKTHTCPPCPAPEAAGGPSVFLFPPKPKDTLMISRTPEVTCVVVDVSHEDPEVKFNWYVDGVEVHNAKTKPREEQYNSTYRVVSVLTVLHQDWLNGKEYKCKVSNKALGAPIEKTISKAKGQPREPQVCTLPPSREEMTKNQVSLSCAVKGFYPSDIAVEWESNGQPENNYKTTPPVLDSDGSFFLVSKLTVDKSRWQQGNVFSCSVMHEALHNHYTQKSLSLSPGK |  |  |  |  |  |  |  |  | Kd [6]: 241 nM; koff [6]: 0.0518 s⁻¹; kon [6]: 215000 M⁻¹ s⁻¹ |
| PR004533 (antibody, V domains shown, anti-CLDN18.2 HCAb: VH fused to human IgG1 Fc, no light chain; also called R1029P021E10) VH: EVQLVESGGGLVQPGGSLRLSCAASGFTFSSYWMHWVRQVPGKGLVWVSRINSDGSRTIYADSVKGRFTISRDNAKNTLYLQMNSLRAEDTAVYYCARGEDHDILTGYPIRGQGTTVTVSS | 25.5 nM | 98.6% | 23.2 nM | 93.7% |  |  |  |  | EC50 (human CLDN18.2 [4]): 25 nM; Emax (MFI) (human CLDN18.2 [4]): 183000 MFI; EC50 (human CLDN18.2 [2]): 11.9 nM; Emax (MFI) (human CLDN18.2 [2]): 11300 MFI |
| PR004540 (antibody, V domains shown, anti-CLDN18.2 HCAb: VH fused to human IgG1 Fc, no light chain; also called R1029P037B07) VH: EVQLVESGGGLVQPGGSLRLSCAASGFTFSIYWMHWVRQVPGKGLVLVSRISSDGNYTSYADSVKGRFTISRDNAKNTLYLQMNSLRAEDTAVYLCARGEDHDMLTGYPVRGQGTTVTVSS | 64.1 nM | 95.8% | 50 nM | 89.2% |  |  |  |  |  |
| PR007248 (antibody, human IgG1, V domains shown, HCDR2 PTM-removal mutant of PR004533; HCAb, human IgG1 Fc; also called 4533_M10E7) VH: EVQLVESGGGLVQPGGSLRLSCAASGFTFSSYWMHWVRQVPGKGLVWVSRINHDSSRTIYADSVKGRFTISRDNAKNTLYLQMNSLRAEDTAVYYCARGEDHDILTGYPIRGQGTTVTVSS |  |  |  |  | 12.8 nM | 1.31e+06 MFI | 74.6 nM | 174000 MFI |  |
| PR004949 (antibody, V domains shown, anti-CLDN18.2 HCAb: VH fused to human IgG1 Fc, no light chain; also called R1029P021C02) VH: EVQLVESGGGLVQPGGSLRLSCAASGFTFSAYWMHWVRQVPGRGLVWVSRINSDGSRTIYADSVKGRFTISRDNAKNTLYLQMNSLRAEDTAVYLCARGEDHDMLTGYPVRGQGTMVTVSS | 35.4 nM | 98.5% | 31 nM | 94.2% |  |  |  |  | EC50 (human CLDN18.2 [4]): 21.8 nM; Emax (MFI) (human CLDN18.2 [4]): 265000 MFI; EC50 (human CLDN18.2 [2]): 12.8 nM; Emax (MFI) (human CLDN18.2 [2]): 18300 MFI |
| PR007244 (antibody, human IgG1, V domains shown, HCDR2 PTM-removal mutant of PR004533; HCAb, human IgG1 Fc; also called 4533_M4H6) VH: EVQLVESGGGLVQPGGSLRLSCAASGFTFSSYWMHWVRQVPGKGLVWVSRIDSRGSRTIYADSVKGRFTISRDNAKNTLYLQMNSLRAEDTAVYYCARGEDHDILTGYPIRGQGTTVTVSS |  |  |  |  | 11.7 nM | 1.3e+06 MFI | 49.2 nM | 153000 MFI |  |
| PR007246 (antibody, human IgG1, V domains shown, HCDR2 PTM-removal mutant of PR004533; HCAb, human IgG1 Fc; also called 4533_M3F10) VH: EVQLVESGGGLVQPGGSLRLSCAASGFTFSSYWMHWVRQVPGKGLVWVSRISSTGSRTIYADSVKGRFTISRDNAKNTLYLQMNSLRAEDTAVYYCARGEDHDILTGYPIRGQGTTVTVSS |  |  |  |  | 14.4 nM | 1.37e+06 MFI | 55.9 nM | 166000 MFI |  |
| PR007243 (antibody, human IgG1, V domains shown, HCDR2 PTM-removal mutant of PR004533; HCAb, human IgG1 Fc; also called 4533_M3D9) VH: EVQLVESGGGLVQPGGSLRLSCAASGFTFSSYWMHWVRQVPGKGLVWVSRISSAGSRTIYADSVKGRFTISRDNAKNTLYLQMNSLRAEDTAVYYCARGEDHDILTGYPIRGQGTTVTVSS |  |  |  |  | 13.3 nM | 1.47e+06 MFI | 78.2 nM | 176000 MFI |  |
| PR007245 (antibody, human IgG1, V domains shown, HCDR2 PTM-removal mutant of PR004533; HCAb, human IgG1 Fc; also called 4533_M6E6) VH: EVQLVESGGGLVQPGGSLRLSCAASGFTFSSYWMHWVRQVPGKGLVWVSRISSDASRTIYADSVKGRFTISRDNAKNTLYLQMNSLRAEDTAVYYCARGEDHDILTGYPIRGQGTTVTVSS |  |  |  |  | 13 nM | 1.31e+06 MFI | 63.2 nM | 137000 MFI |  |
| PR007242 (antibody, human IgG1, V domains shown, HCDR2 PTM-removal mutant of PR004533; HCAb, human IgG1 Fc; also called 4533_M10E1) VH: EVQLVESGGGLVQPGGSLRLSCAASGFTFSSYWMHWVRQVPGKGLVWVSRINFDSSRTIYADSVKGRFTISRDNAKNTLYLQMNSLRAEDTAVYYCARGEDHDILTGYPIRGQGTTVTVSS |  |  |  |  | 11.3 nM | 1.48e+06 MFI | 69.5 nM | 176000 MFI |  |
| PR000400 (antibody, human IgG1, kappa, V domains shown, also called IMAB362 analogue) VH: QVQLQQPGAELVRPGASVKLSCKASGYTFTSYWINWVKQRPGQGLEWIGNIYPSDSYTNYNQKFKDKATLTVDKSSSTAYMQLSSPTSEDSAVYYCTRSWRGNSFDYWGQGTTLTVSS VL: DIVMTQSPSSLTVTAGEKVTMSCKSSQSLLNSGNQKNYLTWYQQKPGQPPKLLIYWASTRESGVPDRFTGSGSGTDFTLTISSVQAEDLAVYYCQNDYSYPFTFGSGTKLEIKR | 20.1 nM | 96.4% | 11.5 nM | 90.7% | 5.6 nM | 1.32e+06 MFI | 56.4 nM | 58400 MFI | IC50 (human CLDN18.2 [8]): 25.2 nM; Maximum inhibition rate (%) (human CLDN18.2 [8]): 52.3%; IC50 (human CLDN18.2 [9]): 36.2 nM; Maximum inhibition rate (%) (human CLDN18.2 [9]): 92.7%; EC50 (human CLDN18.2 [4]): 17 nM; Emax (MFI) (human CLDN18.2 [4]): 101000 MFI |
